Experimental data reported in IntAct's records for PubMed 31515488.

B1: Dendritic cell nuclear protein 1 (Homo sapiens), Q8TF63 (parent)
chain: MHYGAATHIQNSRSHGLETVPGHQRLERGAGGETPEFPGCHSPAPPENFGNELLPLSAPLQGLSEGLYPPGRNKTLPAGVLREGAVQFLHRGLCNSNLSSEASARPSGTQDELHSSRRKTGQTRREGARKHLVCSFRLYPFTVHTVSPGNSHLALYQVFKAVKLCPSETSFFLSRKSLKSSDPWHPPSLSPNSWNRQAGFRAWSSHLISLSLTCSDSQSRRVSSSQQPPLHSLSSHRRAAHVPE
B2: Pre-mRNA-splicing factor SPF27 (Homo sapiens), O75934 (parent)
chain: MAGTGLVAGEVVVDALPYFDQGYEAPGVREAAAALVEEETRRYRPTKNYLSYLTAPDYSAFETDIMRNEFERLAARQPIELLSMKRYELPAPSSGQKNDITAWQECVNNSMAQLEHQAVRIENLELMSQHGCNAWKVYNENLVHMIEHAQKELQKLRKHIQDLNWQRKNMQLTAGSKLREMESNWVSLVSKNYEIERTIVQLENEIYQIKQQHGEANKENIRQDF
partner: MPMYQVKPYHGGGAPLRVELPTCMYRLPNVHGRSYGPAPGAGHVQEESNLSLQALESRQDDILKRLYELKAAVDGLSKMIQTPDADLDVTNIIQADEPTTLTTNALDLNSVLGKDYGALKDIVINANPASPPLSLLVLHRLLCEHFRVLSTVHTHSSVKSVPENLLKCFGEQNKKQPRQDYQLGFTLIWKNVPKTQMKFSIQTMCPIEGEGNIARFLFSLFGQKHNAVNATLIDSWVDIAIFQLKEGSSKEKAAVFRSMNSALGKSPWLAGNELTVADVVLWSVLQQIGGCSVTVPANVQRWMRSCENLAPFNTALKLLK
B3: Vesicle transport through interaction with t-SNAREs homolog 1B (Homo sapiens), Q9UEU0 (parent)
chain: MASSAASSEHFEKLHEIFRGLHEDLQGVPERLLGTAGTEEKKKLIRDFDEKQQEANETLAEMEEELRYAPLSFRNPMMSKLRNYRKDLAKLHREVRSTPLTATPGGRGDMKYGIYAVENEHMNRLQSQRAMLLQGTESLNRATQSIERSHRIATETDQIGSEIIEELGEQRDQLERTKSRLVNTSENLSKSRKILRSMSRKVTTNKLLLSIIILLELAILGGLVYYKFFRSH
partner: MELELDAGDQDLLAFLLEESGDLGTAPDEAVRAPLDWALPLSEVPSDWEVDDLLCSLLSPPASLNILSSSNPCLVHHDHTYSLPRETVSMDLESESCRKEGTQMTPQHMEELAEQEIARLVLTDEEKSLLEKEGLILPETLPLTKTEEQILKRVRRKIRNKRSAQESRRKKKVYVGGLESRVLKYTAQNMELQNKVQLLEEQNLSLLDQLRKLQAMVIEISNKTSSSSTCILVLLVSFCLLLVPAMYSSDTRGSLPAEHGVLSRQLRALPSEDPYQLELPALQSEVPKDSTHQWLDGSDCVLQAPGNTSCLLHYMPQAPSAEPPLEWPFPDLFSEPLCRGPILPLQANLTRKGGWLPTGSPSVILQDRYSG
B4: UBX domain-containing protein 6 (Homo sapiens), Q9BZV1 (parent)
chain: MKKFFQEFKADIKFKSAGPGQKLKESVGEKAHKEKPNQPAPRPPRQGPTNEAQMAAAAALARLEQKQSRAWGPTSQDTIRNQVRKELQAEATVSGSPEAPGTNVVSEPREEGSAHLAVPGVYFTCPLTGATLRKDQRDACIKEAILLHFSTDPVAASIMKIYTFNKDQDRVKLGVDTIAKYLDNIHLHPEEEKYRKIKLQNKVFQERINCLEGTHEFFEAIGFQKVLLPAQDQEDPEEFYVLSETTLAQPQSLERHKEQLLAAEPVRAKLDRQRRVFQPSPLASQFELPGDFFNLTAEEIKREQRLRSEAVERLSVLRTKAMREKEEQRGLRKYNYTLLRVRLPDGCLLQGTFYARERLGAVYGFVREALQSDWLPFELLASGGQKLSEDENLALNECGLVPSALLTFSWDMAVLEDIKAAGAEPDSILKPELLSAIEKLL
partner: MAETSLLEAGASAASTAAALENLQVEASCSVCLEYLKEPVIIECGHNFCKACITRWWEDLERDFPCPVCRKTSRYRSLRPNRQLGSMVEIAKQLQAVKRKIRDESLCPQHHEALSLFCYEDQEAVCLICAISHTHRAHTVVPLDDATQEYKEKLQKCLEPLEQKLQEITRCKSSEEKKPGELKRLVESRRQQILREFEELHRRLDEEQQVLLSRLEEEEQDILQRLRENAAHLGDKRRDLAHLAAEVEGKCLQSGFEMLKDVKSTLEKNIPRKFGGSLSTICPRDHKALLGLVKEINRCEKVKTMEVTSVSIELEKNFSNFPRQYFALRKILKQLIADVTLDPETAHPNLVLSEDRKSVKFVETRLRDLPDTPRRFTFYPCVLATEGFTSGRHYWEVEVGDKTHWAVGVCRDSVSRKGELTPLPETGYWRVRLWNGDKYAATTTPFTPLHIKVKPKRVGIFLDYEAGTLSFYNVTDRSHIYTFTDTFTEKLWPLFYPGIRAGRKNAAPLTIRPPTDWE
B5: Keratin, type II cytoskeletal 79 (Homo sapiens), Q5XKE5 (parent)
chain: MRSSVSRQTYSTKGGFSSNSASGGSGSQARTSFSSVTVSRSSGSGGGAHCGPGTGGFGSRSLYNLGGHKSISVSVAGGALLGRALGGFGFGSRAFMGQGAGRQTFGPACPPGGIQEVTVNQSLLTPLHVEIDPEIQRVRTQEREQIKTLNNKFASFIDKVRFLEQQNKVLETKWALLQEQGQNLGVTRNNLEPLFEAYLGSMRSTLDRLQSERGRLDSELRNVQDLVEDFKNKYEDEINKHTAAENEFVVLKKDVDAAYMGRMDLHGKVGTLTQEIDFLQQLYEMELSQVQTHVSNTNVVLSMDNNRNLDLDSIIAEVKAQYELIAQRSRAEAEAWYQTKYEELQVTAGKHGDNLRDTKNEIAELTRTIQRLQGEADAAKKQCQQLQTAIAEAEQRGELALKDAQKKLGDLDVALHQAKEDLTRLLRDYQELMNVKLALDVEIATYRKLLESEESRMSGECPSAVSISVTGNSTTVCGGGAASFGGGISLGGSGGATKGGFSTNVGYSTVKGGPVSAGTSILRKTTTVKTSSQRY
partner: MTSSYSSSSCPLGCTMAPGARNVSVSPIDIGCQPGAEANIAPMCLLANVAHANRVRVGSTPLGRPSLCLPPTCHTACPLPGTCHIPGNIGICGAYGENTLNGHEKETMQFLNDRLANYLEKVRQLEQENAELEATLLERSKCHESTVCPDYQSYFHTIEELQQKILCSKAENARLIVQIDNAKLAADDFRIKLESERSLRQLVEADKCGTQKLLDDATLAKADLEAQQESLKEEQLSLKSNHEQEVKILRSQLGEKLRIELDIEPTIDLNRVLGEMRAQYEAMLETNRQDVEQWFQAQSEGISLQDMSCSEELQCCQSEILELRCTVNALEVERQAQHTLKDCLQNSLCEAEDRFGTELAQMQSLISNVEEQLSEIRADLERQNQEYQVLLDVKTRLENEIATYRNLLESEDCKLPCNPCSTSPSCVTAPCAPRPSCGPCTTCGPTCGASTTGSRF

Variants of: B1
Settings: with mdfi_human MDFI

Row | Variant | effect of a mutation on the interaction
1 | S135C | with no effect

Variants of: B2
Settings: with aimp2_human AIMP2, Q13155

Row | Variant | effect of a mutation on the interaction
2 | N139S | with no effect

Variants of: B3
Settings: with creb3_human CREB3, O43889

Row | Variant | effect of a mutation on the interaction
3 | R124Q | with no effect
4 | R176H | with no effect

Variants of: B4
Settings: with tri39_human TRIM39, Q9HCM9

Row | Variant | effect of a mutation on the interaction
5 | A361V | with no effect

Variants of: B5
Settings: with krt38_human KRT38, O76015

Row | Variant | effect of a mutation on the interaction
6 | R161Q | with no effect
7 | G86E | with no effect
8 | R213W | disrupting interaction strength
9 | D217Y | with no effect
10 | R30C | with no effect
11 | H266R | with no effect
